B1: TPR t1 (parent)
chain: GACCAAUCUGCCCUCAGAGCUCGAGAACAUCUUCGGAUGCAGAGGAGGCAGGCUUCGGUGGCGCGAUAGCGCCAACGUCCUCAACCUCCAAUGCAUCCCACCACAUGAUGAUGCCUGAAGAGCCUUGGUUUUUUG

Variants of B1 are the subject of the data set. The data set can be described thus: polymerase ribozyme fitness, log enrichment relative to wild type (log ratio); higher = more active; in vitro selection for triplet polymerase activity. The method, boiled down:
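Genotype fitness is the logarithm of its enrichment divided by wild-type enrichment, using inverse-variance-weighted averages of replicates. That logarithm is base 2. Enrichment was measured by Illumina sequencing of input and output libraries from one triplicate in vitro selection round, with frozen incubation at −7 °C, on PCR-built, transcribed mutant libraries of each subunit of a heterodimeric triplet polymerase ribozyme, retaining genotypes with ≥10 input reads and ≥1 read per output.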
Take GACCAAUCUGCCCUCAGAGCUCGAGAACAUCUUCGGAUGCAGAGGAGGCCGGCUUCGGUGGCGCGUUAGCGUCAACGUCCGCAAACUCCAAUGCAUCCCACCACAUGAUGAUGCCUGAAGAGCCUUGGUUUUUUG: the “polymerase ribozyme fitness (log ratio)” value was -3.05.

Consider GACCAAUCUGCCCUCAGAGCUCGAGAACAUCUUCGGAUGCAGAGGAGGUAGGCUUCGGUGGCGCGAUAGCGCCAACGUCCUCAACCUCCAAUGCAUCCCACCACAUGAUGAUGCCUGAAGAGCUUUGGUUUAUUG, for which the “polymerase ribozyme fitness (log ratio)” value is 0.615. In the case of GACCAAUCUGCCCUCAGAGCUCGAGAACAUCUUCGGAUGCAGAGGAGGUAGGCUUCGGUGGCGCGAUAGCGCCAACGUCCUCAACCUCCAAUGCAUCCCACCACAAGAUGAUGCCUGAAGAGCCUAGGUUUUUUG, the “polymerase ribozyme fitness (log ratio)” value was -2.78. To GACCAAUCUGCCCUCAGAGCUCGAGAACAUCUUCGGAUGCAGAGGAGGUAGGCUUCUGUGGCGCGAUAGCGCCAACGUUCUCAACCUCCAAUGCAUCCCAACACAUGAUGAUGCCUGAAGAGCCUUGUUUUUUUG belongs -4.04; to GACCAAUCUGCCCUCAGAGCUCGAGAACAUCUUCGGAUGCAGAGGAGGCCGGCUUCGGUGGCGUGAUAGCGCCAACAUCCUCAACCUCCAAUGCAUCCCACCACAUGAUGAUGCCUGAAGAGCCUUGGUUUUUUG, -0.681; to GACCAAUCUGCCCUCAGAGCUCGAGAACAUCUUCGGAUGCAGAGGAGGUAGGCUUCGGUGGCGCGAUAGCGCCAACGUCCUCAACCUCCAAUGCAUCCCACCACAUGAUGAUGCCUGAAGAGCCUUGGUUUUUUC, -0.277. Take GACCAAUCUGCCCUCAGAGCUCGAGAACAUCUUCGGAUGCAGAGGAGGUAGGCUUCGGUGGCGCGAUAGCACCAACGUCCUCAACCUCCAAUGCAUCCCACCACAUGAUGAUGCCUGAAGAGCCUUGGUCUUUUG: the “polymerase ribozyme fitness (log ratio)” value was -1.63. With GACCAAUCUGCCCUCAGAGCUCGAGAACAUCUUCGGAUGCAGAGGAGGUAGGCUUCGGUGGCGCGAUAGCGCCAACGUCCUCAACCUCCAAUGCAUUCCACCACAUGAUGAUGCCUGAAGAGCCUUGGUUUUUUG the figure was -1.01. As to GACCAAUCUGCCCUCAGAGCUCGAGAACAUCUUCGGAUGCAGAGGAGGCCGGUUUAGGUGGCGCGAUAGCGCCAACGUCCUCAACCUCCAAUGCAUCCCACCACAUGAUGAUGCCUGAAGAGCCUUGGUUUUUUG, the “polymerase ribozyme fitness (log ratio)” value was -0.754. To GACCAAUCUGCCCUCAGAGCUCGAGAACAUCUUCGGAUGCAGAGGAGGCCGGCUUCGGUGGCGCGAUAGCGCCAACGUGCUCAACCUCCAAUGCAUCCCACCACAUGAUGAUGCCUGAAGAGCCAUGGUUUUUUG belongs -1.78; to GACCAAUCUGCCCUCAGAGCUCGAGAACAUCUUCGGAUGCAGAGGAGGCCGGCUUCGGUGGUGCGAUAGCGCCAACGUCCUCAACCUCCAAUGUAUCCCACCACAUGAUGAUGCCUGAAGAGCCUUGGUUUUUUG, -0.553; to GACCAAUCUGCCCUCAGAGCUCGAGAACAUCUUCGGAUGCAGAGGAGGUAGGCUUCGGUGGCGCGAUAGCGCCAACGUCCUUAACCUCCAAUGCAUCCCACCACAUGAUGAUGCCUGAAGAGCCUUGGUUUUUUG, -0.598. With GACCAAUCUGCCCUCAGAGCUCGAGAACAUCUUCGGAUGCAGAGGAGGCCGGCUUCGGUGGCGCGAUAGCGCCAACGUCCUCAACCUCCCAUGCAUCCCACCACAUGAUGAUGCCUGAAGAGCCUUGGUUUUGUG the figure was -1.46; with GACCAAUCUGCCCUCAGAGCUCGAGAACAUCUUCGGAUGCAGAGGAGGCCGGUUUCAGUGGCGCGAUAGCGCCAACGUCCUCAACCUCCAAUGCAACCCACCACAUGAUGAUGCCUAAAGAGCCUUGGUUUAUUG, -5.61. To GACCAAUCUGCCCUCAGAGCUCGAGAACAUCUUCGGAUGCAGAGGAGGUAGGCUUCGGUAGCGCGAUAGCGCCAACGUCCUCAACCUCCAAUGCAUGCCACCACAUGAUGAUGCCUGAAGAGCCUUGGUUUUUUG belongs -5.67; to GACCAAUCUGCCCUCAGAGCUCGAGAACAUCUUCGGAUGCAGAGGAGGUAGGCUUCGGUGGCGCGAUAUCGCCAACGUCCUCAACCUCCAAUGCAUCCCACCACAUGAUGAUGCCUGAAGCGCCUUGGUUUUUUG, 1.51. Turning to GACCAAUCUGCCCUCAGAGCUCGAGAACAUCUUCGGAUGCAGAGGAGGCCGGCUUCGGUGGCGCGAUAGCGGCAACGUCCUCAACCUCCAAUGCAUCCCACCACAUGAUGAUGCCUGAAGAGCCUUAGUUUUUUG, the “polymerase ribozyme fitness (log ratio)” value was -2.8. With GACCAAUCUGCCCUCAGAGCUCGAGAACAUCUUCGGAUGCAGAGGAGGUAGGCUUCGGAGGCGCGAUAGCGCCAACGCCCUCAGCCUCCAAUGCAUCCCACCACAUGAUGAUGCCUGAAGAGCCUUGGUUUUUUG the figure was -1.51; with GACCAAUCUGCCCUCAGAGCUCGAGAACAUCUUCGGAUGCAGAGGAGGUAGGCUUCGGUGACGCGAUAGCGCCAACGUCCUCAACCUCCAAUGCAACCCACCACAUGAUGAUGCCUGAAGAGCCUUGGUUUUUUG, -0.582; with GACCAAUCUGCCCUCAGAGCUCGAGAACAUCUUCGGAUGCAGAGGAGGUAAGCUUCGGUGGCGCGAUAGCGCCAACGUCCUCAACCUCCAAUGCAUCCCACCACAUGAUGAUGCCUGAAGAGCCUUGGUUUUUUG, -1.4. For the variant GACCAAUCUGCCCUCAGAGCUCGAGAACAUCUUCGGAUGCAGAGGAGGUAGGCUUCGGUGGCGCGAUAGCGCCAACGUCCUCAACCUCCAAUGCAUCCCACCACAUGAUGAUGCCUGAAGAGGCUUGCUUUUUUG, the “polymerase ribozyme fitness (log ratio)” value was -1.69.

The record behind these values is the RNAGym collection of RNA variant scans (doi:10.1073/pnas.2313332121).
